Abundance fitness data for 167 variants are collected here from the Human Domainome abundance scans (Beltran et al. 2025).

B1: Transcription factor SOX-11, residues 50 to 117; numbered along this chain, P35716 (parent)
chain: KRPMNAFMVWSKIERRKIMEQSPDMHNAEISKRLGKRWKMLKDSEKIPFIREAERLRLKHMADYPDYK

± gives the uncertainty stated by the source.

The variants in the series derive from B1. Nature of the series: abundance fitness (aPCA) (normalised: wild type 0, dead -1); higher = more abundant; growth selection in yeast, the domain comes from the species named. The settings on record: Homo sapiens.
As to N27A, the abundance fitness was 0.177 ± 0.064. N27V: the abundance fitness is -0.178 ± 0.055. With N27L the figure was -0.279 ± 0.062; with N27C, -0.08 ± 0.055.

Turning to N27W, the abundance fitness came out at 0.105 ± 0.1. With N27R the figure was -0.341 ± 0.07; with N27F, -0.128 ± 0.056; with N27M, -0.287 ± 0.15. For N27E the value was 0.333 ± 0.11; for N27D, 0.403 ± 0.06. With N27Q the figure was 0.205 ± 0.11.

Take N27T: the abundance fitness was -0.033 ± 0.07. With N27H the figure was 0.139 ± 0.054. With N27Y the figure was -0.213 ± 0.063; with N27G, -0.096 ± 0.056. As to N27K, the abundance fitness was -0.178 ± 0.15. For N27S the value was 0.07 ± 0.049; for N27P, 0.4 ± 0.065. Consider K42Y, for which the abundance fitness is -0.525 ± 0.077. For K42D the value was -0.263 ± 0.063.

Regarding K42M, the abundance fitness was -0.161 ± 0.11. As to K42L, the abundance fitness was -0.315 ± 0.056. For K42W the value was -0.706 ± 0.16; for K42I, -0.526 ± 0.072; for K42R, -0.278 ± 0.064. For K42V the value was -0.431 ± 0.055; for K42A, -0.058 ± 0.071; for K42N, 0.051 ± 0.05. Consider K42E, for which the abundance fitness is -0.387 ± 0.17.

With K42H, the abundance fitness was -0.235 ± 0.067. For K42P the value was 0.021 ± 0.068; for K42C, -0.424 ± 0.061.

In the case of K42F, the abundance fitness is -0.673 ± 0.065. For K42G the value was -0.221 ± 0.063; for P23S, -0.453 ± 0.058.

Consider P23Y, for which the abundance fitness was -0.665 ± 0.09. With P23V the figure was -0.598 ± 0.07; with P23W, -1.09 ± 0.24; with W38E, -1.27 ± 0.46. In the case of W38C, the abundance fitness was -0.644 ± 0.081.

W38S: the abundance fitness was -0.59 ± 0.063.

In the case of W38D, the abundance fitness was -0.696 ± 0.09. Take W38G: the abundance fitness is -0.865 ± 0.11. For W38M the value was -0.717 ± 0.23.

Consider W38R, for which the abundance fitness was -0.653 ± 0.12. Take W38F: the abundance fitness was -0.801 ± 0.076. With W38N the figure was -0.914 ± 0.11.

For the variant W38H, the abundance fitness is -0.851 ± 0.12. With W38L the figure was -0.994 ± 0.12; with W38Q, -0.068 ± 0.36.

On to W38A, for which the abundance fitness was -0.568 ± 0.09. With W38I the figure was -0.716 ± 0.079; with W38V, -0.766 ± 0.081; with W38Y, -0.641 ± 0.074.

Regarding W38P, the abundance fitness was -1 ± 0.17.

For the variant W38K, the abundance fitness is -0.375 ± 0.22. With W38T the figure was -1.05 ± 0.16.

As to D24Q, the abundance fitness is -0.147 ± 0.32. For D24V the value was -0.643 ± 0.085; for D24W, -0.337 ± 0.16.

On to D24Y, for which the abundance fitness was -0.35 ± 0.062.

Take D24F: the abundance fitness was -0.435 ± 0.066.

For the variant D24T, the abundance fitness was -0.22 ± 0.08. Turning to D24P, the abundance fitness is -0.836 ± 0.15. Take D24G: the abundance fitness is -0.105 ± 0.057. With D24I the figure was -0.538 ± 0.09; with D24L, -0.507 ± 0.078.

As to D24E, the abundance fitness was -0.164 ± 0.17. With D24N the figure was -0.128 ± 0.071. With D24K the figure was -0.578 ± 0.23; with D24M, -0.63 ± 0.32.

Regarding D24H, the abundance fitness is -0.26 ± 0.079. With D24R the figure was -0.456 ± 0.091; with D24A, -0.093 ± 0.069. In the case of D24C, the abundance fitness is -0.435 ± 0.074.

For the variant G35T, the abundance fitness was found to be 0.262 ± 0.059. With G35A the figure was 0.152 ± 0.06. With G35K the figure was 0.484 ± 0.12. With G35Y the figure was 0.126 ± 0.058; with G35W, -0.207 ± 0.11; with G35V, 0.25 ± 0.048.

Regarding G35P, the abundance fitness was -0.234 ± 0.1.

On to G35S, for which the abundance fitness worked out at 0.315 ± 0.043. With G35M, the abundance fitness came to 0.17 ± 0.1. With G35L, the abundance fitness turned out to be 0.162 ± 0.055. For G35C the value was 0.129 ± 0.051. Turning to G35H, the abundance fitness is 0.266 ± 0.061.

Consider G35D, for which the abundance fitness was determined as 0.25 ± 0.055. For G35R the value was 0.142 ± 0.057; for G35I, 0.173 ± 0.053.

Consider G35Q, for which the abundance fitness came out at 0.212 ± 0.15. With G35E the figure was 0.519 ± 0.1. With L34P the figure was -0.222 ± 0.11; with L34V, -0.531 ± 0.072; with L34R, -0.763 ± 0.1. In the case of L34D, the abundance fitness is -0.685 ± 0.1. With L34S the figure was -0.719 ± 0.074. With L34H the figure was -0.846 ± 0.11. For L34Q the value was -0.638 ± 0.23. As to L34C, the abundance fitness was -0.522 ± 0.072. For L34W, the abundance fitness was -0.909 ± 0.14.

Take L34F: the abundance fitness is -0.68 ± 0.066. With L34M the figure was -0.547 ± 0.16. As to L34Y, the abundance fitness was -0.826 ± 0.089.

Consider L34A, for which the abundance fitness is -0.938 ± 0.13. For L34K the value was -1.29 ± 0.39. As to L34E, the abundance fitness is -0.891 ± 0.34. For L34N the value was -0.82 ± 0.092; for R37Y, -0.59 ± 0.068.

With R37T, the abundance fitness stood at 0.205 ± 0.06. With R37E the figure was 0.188 ± 0.1; with R37D, -0.27 ± 0.056. As for R37V, the abundance fitness was -0.271 ± 0.052.

On to R37L, for which the abundance fitness is -0.085 ± 0.053. As for R37K, the abundance fitness was -0.039 ± 0.094. For R37P the value was -1.13 ± 0.23. As for R37M, the abundance fitness was -0.058 ± 0.11. Take R37H: the abundance fitness is -0.129 ± 0.07. Consider R37A, for which the abundance fitness amounted to 0.117 ± 0.054. With R37G, the abundance fitness is 0.01 ± 0.056. For R37Q the value was 0.073 ± 0.14; for R37W, -0.418 ± 0.2; for R37C, -0.346 ± 0.057. As to R37I, the abundance fitness was -0.123 ± 0.051. For R37F, the abundance fitness was -0.764 ± 0.072. On to R37N, for which the abundance fitness worked out at 0.001 ± 0.051.

As to K39R, the abundance fitness is -0.119 ± 0.068. For K39E the value was -0.075 ± 0.17; for K39S, -0.148 ± 0.049. For K39G the value was -0.084 ± 0.055; for K39C, -0.452 ± 0.071; for K39Q, 0.05 ± 0.14.

With K39Y, the abundance fitness was -0.683 ± 0.071. In the case of K39H, the abundance fitness was -0.473 ± 0.087. With K39W the figure was -1.03 ± 0.36; with K39V, -0.395 ± 0.062. With K39N the figure was -0.045 ± 0.053; with K39P, -0.868 ± 0.19.

Regarding K39F, the abundance fitness was -0.455 ± 0.065. K39M: the abundance fitness is -0.211 ± 0.12. Consider K39D, for which the abundance fitness is 0.008 ± 0.061. With K39L the figure was -0.274 ± 0.078. Turning to K36W, the abundance fitness was -0.535 ± 0.18. Regarding K36L, the abundance fitness amounted to 0.034 ± 0.057. On to K36I, for which the abundance fitness was 0.199 ± 0.058. K36T: the abundance fitness is 0.155 ± 0.066. For K36P the value was -0.868 ± 0.22.

K36G: the abundance fitness is -0.219 ± 0.064. With K36F the figure was -0.149 ± 0.058. As for K36H, the abundance fitness was -0.036 ± 0.068. On to K36V, for which the abundance fitness was found to be 0.052 ± 0.054. As to K36A, the abundance fitness stood at 0.084 ± 0.066. With K36N, the abundance fitness turned out to be 0.094 ± 0.057. With K36R the figure was -0.011 ± 0.067; with K36M, -0.047 ± 0.097; with K36Y, 0.041 ± 0.056. For K36C the value was -0.166 ± 0.062.

In the case of K36D, the abundance fitness was 0.247 ± 0.059.

Consider K32S, for which the abundance fitness is -0.253 ± 0.056.

As for K32F, the abundance fitness was -0.329 ± 0.063. Consider K32T, for which the abundance fitness was -0.308 ± 0.073. With K32M the figure was -0.17 ± 0.13; with K32P, -0.672 ± 0.16.

For the variant K32I, the abundance fitness is -0.145 ± 0.056. For K32L the value was -0.175 ± 0.058; for K32H, -0.036 ± 0.061; for K32G, -0.245 ± 0.063.
